Patent US20240400654A1
Changes are numbered by the printed parent chain. Numbers in names are those of the source. Where “and” joins values, the source holds several entries; their conditions need not be identical. Equal entries are not always repeated.

B1: KB001 parental mouse Fab FASEBA variant VH Y106W (Fab, V domains shown)
VH: EVQLKQSGPGLVAPSQSLSITCTVSGFSLSIYSVHWVRQPPGKGLEWLGMIWGGGSSDYNSALKSRLSISKDNSKSQVFLKMNSLQTDDTAMYYCARNGNFYAMDWWGQGTSVTVSS
VL: QIVLTQSPAIMSASLGERVTMTCTASSSVSSSFLHWYQQKPGSSPQLWIYSTSNLASGVPARFSGSGSGTSYSLTISSMEAEDAATYYCHQYHHSPYIYTFGGGTKLEIK
B2: KB001 parental mouse Fab FASEBA variant VH Y106D (Fab, V domains shown)
VH: B1 VH with W106D
VL: B1 VL
B3: KB001 parental mouse Fab FASEBA variant VH Y106K (Fab, V domains shown)
VH: B1 VH with W106K
VL: B1 VL
B4: KB001 parental mouse Fab FASEBA variant VH M104V (Fab, V domains shown)
VH: B1 VH with M104V, W106Y
VL: B1 VL
B5: H5 K222A (antibody, V domains shown)
VH: QVQLQESGPGLVKPSETLSLTCTVSGFSLSIYSVHWIRQPPGKGLEWIGMIWGGGSSDYNSALKSRLTISKDTSKNQVSLKLSSVTAADTAVYYCARNGNFYAMDYWGQGTLVTVSS
VL: EIVLTQSPGTLSLSPGERATLSCTASSSVSSSFLHWYQQKPGQAPRLLIYSTSNLASGIPDRFSGSGSGTDFTLTISRLEPEDFAVYYCHQYHHSPYIYTFGGGTKLEIK
B6: H7 K222A (antibody, V domains shown)
VH: B5 VH
VL: B5 VL with R46Q, L48W, F72Y, V86T
B7: H8 K222A (antibody, V domains shown)
VH: B5 VH
VL: B5 VL with R46Q, L48W, D61A, F72Y, V86T
B8: H14 K222A (antibody, V domains shown)
VH: B5 VH with I48L, V92M
VL: B5 VL with R46Q, L48W, F72Y
B9: H8 (antibody, V domains shown)
VH: B5 VH
VL: B5 VL with R46Q, L48W, D61A, F72Y, V86T
B10: H14 (antibody, V domains shown)
VH: B5 VH with I48L, V92M
VL: B5 VL with R46Q, L48W, F72Y
B11: H5 (antibody, V domains shown)
VH: B5 VH
VL: B5 VL
B12: H7 (antibody, V domains shown)
VH: B5 VH
VL: B5 VL with R46Q, L48W, F72Y, V86T

molecular target: HRgpA-6H (Porphyromonas gingivalis) (UniProt P28784); assay: ELISA, FASEBA screening, coated HRgpA-6H 0.0625 ug/ml

In the case of B1, the OD450 nm is reported as 0.733 and 0.748.

In order of rising OD450 nm:
1. B4  0.654
2. B2  0.675
3. B3  0.767

molecular target: HRgpA-6H (Porphyromonas gingivalis) (UniProt P28784); assay: SPR Biacore 8K; table lists HRgpA-6H as ligand, antibody as analyte

In order of falling Kd:
1. B8  1.3 nM
2. B6  0.795 nM
3. B7  0.57 nM
4. B5  0.068 nM

In order of falling koff:
1. B8  6.53e-05 s⁻¹
2. B6  4.36e-05 s⁻¹
3. B7  3.3e-05 s⁻¹
4. B5  3.42e-06 s⁻¹

In order of rising kon:
1. B8  50100 M⁻¹ s⁻¹
2. B5  50200 M⁻¹ s⁻¹
3. B6  54800 M⁻¹ s⁻¹
4. B7  58000 M⁻¹ s⁻¹

molecular target: HRgpA-6H (Porphyromonas gingivalis) (UniProt P28784); assay: SPR Biacore 8K, 25 C; table lists HRgpA-6H as ligand, antibody as analyte

In order of rising Kd:
1. B12  0.258 nM
2. B11  0.825 nM
3. B10  0.939 nM
4. B9  1.33 nM

In order of falling koff:
1. B9  6.7e-05 s⁻¹
2. B10  4.89e-05 s⁻¹
3. B11  4.5e-05 s⁻¹
4. B12  1.07e-05 s⁻¹

In order of falling kon:
1. B11  54500 M⁻¹ s⁻¹
2. B10  52100 M⁻¹ s⁻¹
3. B9  50300 M⁻¹ s⁻¹
4. B12  41400 M⁻¹ s⁻¹

molecular target: HRgpA-6H (Porphyromonas gingivalis) (UniProt P28784); assay: ELISA, FASEBA screening, coated HRgpA-6H; variant OD over parental WT Fab OD

B1 was tested, and the Ratio OD(Variant)/OD(WT) was 0.953 and 0.973.

In order of rising Ratio OD(Variant)/OD(WT):
1. B4  0.85
2. B2  0.878
3. B3  0.997
